Test results from publication PMC7907217 (Biochemistry and Biophysics Reports, 2021).
Where “and” joins values, the source holds several entries; their conditions need not be identical. Equal entries are not always repeated.

Key:
3D7 PfAMA1 (DI + DII) [1] = target: T1, 3D7 PfAMA1 (DI + DII) (Plasmodium falciparum 3D7, UniProt Q7KQK5 104-438); assay: ITC
T1 sequence (looked up): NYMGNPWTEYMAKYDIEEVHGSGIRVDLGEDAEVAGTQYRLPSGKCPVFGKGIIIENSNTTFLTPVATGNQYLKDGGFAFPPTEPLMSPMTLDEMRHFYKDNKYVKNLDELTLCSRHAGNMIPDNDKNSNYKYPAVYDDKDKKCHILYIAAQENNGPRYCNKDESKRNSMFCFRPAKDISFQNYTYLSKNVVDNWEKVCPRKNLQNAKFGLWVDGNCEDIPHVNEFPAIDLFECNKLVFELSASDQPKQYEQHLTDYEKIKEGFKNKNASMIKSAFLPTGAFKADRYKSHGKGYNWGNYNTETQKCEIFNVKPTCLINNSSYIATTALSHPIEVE

3D7 PfAMA1 (DI + DII) [2] = target: T1, 3D7 PfAMA1 (DI + DII); assay: SPR

DITQQAKDIGAGPVASCFTTRMSPPQQICLNSVVNTALS (peptide, UniProt Q8IKV6 2021-2059, looked up) [PfRON2ed peptide (Asp2021-Ser2059)]
Kd (3D7 PfAMA1 (DI + DII) [1]): 0.122 µM and 0.0935 to 0.137 µM | Kd (3D7 PfAMA1 (DI + DII) [2]): 0.0219 ± 0.00189 µM
